# Laboratory results: US7943358B2, “Polymerase enhancing factor (PEF) extracts, PEF protein complexes, isolated PEF protein, and methods for purifying and identifying” (Agilent Technologies, Inc., priority 1997, dated 2011)
# T1: Pfu DNA polymerase (Pyrococcus furiosus, UniProt P61875)
# T1 sequence (P61875 1-775): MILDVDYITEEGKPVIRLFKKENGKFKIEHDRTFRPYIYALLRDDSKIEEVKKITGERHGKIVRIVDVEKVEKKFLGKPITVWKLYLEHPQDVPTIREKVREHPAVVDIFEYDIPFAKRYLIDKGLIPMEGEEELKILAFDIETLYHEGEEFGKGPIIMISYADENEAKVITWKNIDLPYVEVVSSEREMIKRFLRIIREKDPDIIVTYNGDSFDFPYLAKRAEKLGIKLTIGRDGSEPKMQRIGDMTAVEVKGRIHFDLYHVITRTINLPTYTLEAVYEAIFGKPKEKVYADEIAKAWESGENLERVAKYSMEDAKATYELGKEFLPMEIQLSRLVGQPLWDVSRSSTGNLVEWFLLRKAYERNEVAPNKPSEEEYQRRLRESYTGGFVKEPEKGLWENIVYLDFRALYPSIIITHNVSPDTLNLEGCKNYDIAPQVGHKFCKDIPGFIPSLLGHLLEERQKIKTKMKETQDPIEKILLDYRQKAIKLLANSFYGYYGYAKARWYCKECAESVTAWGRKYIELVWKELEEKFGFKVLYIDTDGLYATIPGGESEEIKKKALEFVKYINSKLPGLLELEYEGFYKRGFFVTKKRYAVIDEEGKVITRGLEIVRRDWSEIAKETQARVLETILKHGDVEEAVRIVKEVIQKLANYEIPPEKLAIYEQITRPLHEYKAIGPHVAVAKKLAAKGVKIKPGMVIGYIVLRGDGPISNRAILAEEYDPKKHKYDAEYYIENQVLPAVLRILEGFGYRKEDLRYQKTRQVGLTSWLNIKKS
# B1: PEF: polymerase enhancing factor complex purified from Pyrococcus furiosus; predominant components P50 and P45 (protein)
# chain 1: MLHHVKLIYATKSRKLVGKKIVXXXPGSIAALDVKACEGLIRHGAEVHAVMSEAATKIIHPYAWNLPTGNPVITEITGFIEHVELAGEHENKADLILVCPATANTISKIACGIDDTPVTTVVTTAFPHIPIMIAPAMHETMYRHPIVRENIERLKKLGVEFIGPRIEEGRAKVASIDEIVYRVIKKLHKKTLEGKRVLVTAGATREYIDPIRFITNASSGKMGVALAEEADFRGAVTLIRTKGSVKAFRIRKIKLKVETVEEMLSAIENELRSKKYDVVIMAAAVSDFRPKIKAEGKIKSGRSITIELVPXNPKIIDRIKEIQPNVFLVGFKAETSKEKLIEEGKRQIERAKADLVVGNTLEAFGSEENQVVLIGRDFTKELPKMKKRELAERIWDEIEKXLS
# chain 2: MLLPDWKIRKEILIEPFSEESLQPAGYDLRVGREAFVKGKLIDVEKEGKVVIPPREYALILTLERIKLPDDVMGDMKIRSSLAREGVIGSFAWVDPGWDGNLTLMLYNASNEPVELRYGERFVQIAFIRLEGPARNPYRGNYQGSTRLAFSKRKKL
# modifications: not fully specified; X: residue not identified in the source
# notes: polymerase enhancing factor complex purified from Pyrococcus furiosus; predominant components P50 and P45
# Key:
# Taq DNA polymerase = Taq DNA polymerase (Thermus aquaticus, UniProt P19821); assay: PCR with Taq DNA polymerase; type: biochemical
# Experimental: FIGS. 33, 34, 35, and 36. Enhancing activity of P. furiosus PEF in PCRs conducted with Pwo (FIG. 33); JDF-3 (FIGS. 34 and 35), ES4 and Vent (FIG. 35). and Deep Vent (FIG. 36) DNA polymerases. In FIG. 33, 25 μl PCRs were conducted using the 6.2 kb test system (example 1) with 25 U/ml Pwo DNA polymerase and 1× cloned Pfu PCR buffer. 1 μl of S200-purified P. furiosus PEF (prep 1; 225 ng/μl) was added undiluted (lane 1) or diluted 1:10 (lane 2), 1:1000 (lane 3), 1:10,000 (lane 4). 1 μl of dilution buffer was added as a negative control (lane 5). In FIG. 34, a 10 kb lambda DNA-target was amplified from lambda DNA (lanes 1-4; 5-7; 11-13) or mouse genomic DNA, containing 40 copies (lanes 8-10) or 1 copy (lanes 14-16) of a lambda DNA transgene. 100 μl PCRs were conducted with 250 ng of lambda DNA (Sigma) or mouse genomic DNA and 250 ng of primers (F51-20 5′[…] (SEQ ID NO: 22); R10163-20 5′CCA-TCT-CAC-GCG-CCA-GTT-TC) (SEQ ID NO: 23). PCRs were conducted in Taq PCR buffer using 5 U Taq DNA polymerase (lanes 1-4) or 1 U JDF3 DNA polymerase (lanes 5-16). 1 μl of the following was added to PCRs: S200-purified PEF (prep. 3; 550 ng/μl PEF) diluted 1:500 (lanes 2, 12, 15), 1:100 (lanes 6, 9), 1:50 (lane 3), 1:10 (lanes 7, 10, 13, 16), or 1:5 (lane 4). 1 μl of dilution buffer was added as a negative control (lanes 1, 5, 8, 11, 14). […]
# Pfu DNA polymerase = target: T1, Pfu DNA polymerase; assay: 0.9 kb α1-antitrypsin PCR with unrelated dU-containing or control oligonucleotide; type: biochemical; details: 0.8 pmole of dU containing primer; 7 ng PEF
# Taq DNA polymerase, sequence (P19821 whole entry): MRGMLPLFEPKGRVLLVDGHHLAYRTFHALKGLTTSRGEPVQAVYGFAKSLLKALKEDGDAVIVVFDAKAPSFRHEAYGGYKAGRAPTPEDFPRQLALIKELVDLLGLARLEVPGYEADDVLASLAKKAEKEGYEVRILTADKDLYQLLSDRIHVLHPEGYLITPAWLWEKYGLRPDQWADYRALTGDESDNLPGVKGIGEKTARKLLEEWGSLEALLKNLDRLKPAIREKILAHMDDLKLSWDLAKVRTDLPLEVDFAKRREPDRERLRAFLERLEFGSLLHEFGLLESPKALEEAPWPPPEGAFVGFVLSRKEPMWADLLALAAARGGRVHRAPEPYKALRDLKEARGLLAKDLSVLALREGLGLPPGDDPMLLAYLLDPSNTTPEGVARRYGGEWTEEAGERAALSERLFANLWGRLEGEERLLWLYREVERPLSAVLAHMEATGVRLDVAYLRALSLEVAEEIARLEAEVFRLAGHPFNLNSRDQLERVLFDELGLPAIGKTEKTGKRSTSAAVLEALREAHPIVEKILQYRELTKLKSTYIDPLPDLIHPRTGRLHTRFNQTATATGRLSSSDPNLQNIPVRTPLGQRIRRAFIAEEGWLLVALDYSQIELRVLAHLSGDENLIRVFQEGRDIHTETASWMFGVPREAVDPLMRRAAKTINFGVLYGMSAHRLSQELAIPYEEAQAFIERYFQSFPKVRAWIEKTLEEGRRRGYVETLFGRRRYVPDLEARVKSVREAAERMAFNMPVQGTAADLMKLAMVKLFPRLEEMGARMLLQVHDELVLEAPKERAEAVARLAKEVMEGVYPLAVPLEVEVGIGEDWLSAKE
molecule,measurement,setting,value
B1,yield of PCR products generated with Taq DNA polymerase,Taq DNA polymerase,may not enhance the yield
same,amplification in reactions containing dU oligo with PEF,Pfu DNA polymerase,a small amount of amplification product is observed
